Data on two substances can be found in publication PMC10694592.

This experiment concerns the target FITC-labeled 45-mer peptide derived from the C-terminal region of IKKβ. The experiment is described as follows: fluorescence polarisation; fluorescence anisotropy binding assay with an FITC-labeled 45-mer peptide of IKKβ and bacterially expressed full-length NEMO proteins; conditions not told here (refs 13, 26). On the technique in general: Polarisation of emitted light reports the rotation of a fluorescent probe.

Chain of full-length WT NEMO (aa 1-419), bacterially expressed (Q9Y6K9 whole entry, the tested form may be a part): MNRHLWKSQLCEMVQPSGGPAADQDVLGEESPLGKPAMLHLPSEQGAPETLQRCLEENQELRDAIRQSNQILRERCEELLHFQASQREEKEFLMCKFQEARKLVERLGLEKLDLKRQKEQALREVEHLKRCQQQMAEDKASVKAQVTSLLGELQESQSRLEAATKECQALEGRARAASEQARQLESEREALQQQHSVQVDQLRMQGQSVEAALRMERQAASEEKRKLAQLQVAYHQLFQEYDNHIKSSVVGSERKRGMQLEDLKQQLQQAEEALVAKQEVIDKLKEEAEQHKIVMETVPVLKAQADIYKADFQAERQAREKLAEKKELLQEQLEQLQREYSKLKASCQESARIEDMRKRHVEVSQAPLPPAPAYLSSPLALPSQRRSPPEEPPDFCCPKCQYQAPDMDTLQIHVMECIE

For “full-length WT NEMO (aa 1-419), bacterially expressed (from UniProt Q9Y6K9 1-419) (natural protein)”, the Kd (usually the equilibrium constant for the complex coming apart) was found to be 4.7 nM. That is a single-digit nanomolar value.
The substance “OPTN-IVD-NEMO (aa 1-419), bacterially expressed (from UniProt Q9Y6K9 1-419) (natural protein)” showed a Kd of 33 nM.
